US7727950B2, “Methods and reagents for assaying protein kinase activity” (The University of Dundee, priority 2002, dated 2010)

How the values were obtained:
Experiment in all cases: Kinetic parameters for peptide phosphorylation, radioactive filter-binding assay
[1] = substrate: CC(C)C[C@H](NC(=O)[C@H](CCCCN)NC(=O)[C@@H](N)CCCCN)C(=O)N[C@@H](CC(N)=O)C(=O)N[C@@H](CCCNC(=N)N)C(=O)N[C@H](C(=O)N[C@@H](CC(C)C)C(=O)N[C@@H](CO)C(=O)N[C@@H](Cc1ccccc1)C(=O)N[C@@H](C)C(=O)N[C@@H](CCC(=O)O)C(=O)N1CCC[C@H]1C(=O)NCC(=O)O)[C@@H](C)O; type: biochemical, human; conditions: 30.0 °C
From the text: (§1) Apart from the AMP-activated protein kinase (AMPK, a gift from Drs S. Hawley and D. G. Hardie), cGMP-dependent protein kinase (PKG, a generous gift from Drs Susan Lohmann and Ulrich Walter, University of Wurzburg, Germany) and the catalytic subunit of cyclic AMP-dependent protein kinase (PKA, a gift from Dr C. Smythe), which were isolated from rat liver, bovine lung and bovine heart, respectively, all other protein kinases were expressed as either GST-fusion or His-tagged proteins (by a person, a person, Dr A. Paterson or a person, in this Division). The expressed proteins all corresponded to the human sequences apart from the rat Rho-dependent protein kinase (ROCK-II) and rat mitogen-activated protein kinase (MAPK) activated kinase-1a (MAPKAP-K1a, also called RSK). GST-fusion proteins were purified on GSH-agarose (Amersham Pharmacia Biotech, Amersham, UK) and His-tagged proteins on Ni-NTA agarose (Qiagen) essentially according to the manufacturer's instructions. All the protein kinases used in this study are available from Upstate Biotechnology Inc. (Lake Placid, N.Y., USA), apart from the α-isoform of calmodulin-dependent protein kinase II (CaMKII), MAPKAP-K3 and PKG. […]
(§2) All protein kinase assays were linear with respect to time. […] All papers were subsequently washed a further three times in phosphoric acid, once in acetone, then dried and counted for radioactivity. […] The plates were then washed six times (five min per wash) in PBS, 0.1% Tween 20 and binding of the phospho-specific antibody detected by incubating the plates with peroxidase-conjugated anti-sheep antibodies (Pierce). […] Signals were quantitated on LAS-1000IR software (FujiFilm). […]

[2] = substrate: CC(C)C[C@H](NC(=O)[C@@H](NC(=O)[C@H](CCCNC(=N)N)NC(=O)[C@H](C)NC(=O)[C@@H](N)CCCNC(=N)N)[C@@H](C)O)C(=O)N[C@@H](CO)C(=O)N[C@@H](Cc1ccccc1)C(=O)N[C@@H](C)C(=O)N[C@@H](CCC(=O)O)C(=O)N1CCC[C@H]1C(=O)NCC(=O)O; type: biochemical, human; conditions: other: PRAK; Standard Substrate = …; 30.0 °C
From the text: as §1, §2

[3] = substrate: CC(C)C[C@H](NC(=O)[C@H](CCCNC(=N)N)NC(=O)[C@H](CCCNC(=N)N)NC(=O)[C@@H](N)CCCNC(=N)N)C(=O)N[C@@H](CO)C(=O)N[C@@H](Cc1ccccc1)C(=O)N[C@@H](C)C(=O)N[C@@H](CCC(=O)O)C(=O)N1CCC[C@H]1C(=O)NCC(=O)O; type: biochemical, bovine; conditions: other: PKG; Standard Substrate = …; 30.0 °C
From the text: as §1, with “RSK).” for “RSK). GST-fusion proteins were purified on GSH-agarose (Amersham Pharmacia Biotech, Amersham, UK) and His-tagged proteins on Ni-NTA agarose (Qiagen) essentially according to the manufacturer's instructions. All the protein kinases used in this study are available from Upstate Biotechnology Inc. (Lake Placid, N.Y., USA), apart from the α-isoform of calmodulin-dependent protein kinase II (CaMKII), MAPKAP-K3 and PKG.”
as §2

B1: SGK1 (Homo sapiens; S422D) (protein)
chain: ISQPQEPELMNANPSPPPSPSQQINLGPSSNPHAKPSDFHFLKVIGKGSFGKVLLARHKAEEVFYAVKVLQKKAILKKKEEKHIMSERNVLLKNVKHPFLVGLHFSFQTADKLYFVLDYINGGELFYHLQRERCFLEPRARFYAAEIASALGYLHSLNIVYRDLKPENILLDSQGHIVLTDFGLCKENIEHNSTTSTFCGTPEYLAPEVLHKQPYDRTVDWWCLGAVLYEMLYGLPPFYSRNTAEMYDNILNKPLQLKPNITNSARHLLEGLLQKDRTKRLGAKDDFMEIKSHVFFSLINWDDLINKKITPPFNPNVSGPNDLRHFDPEFTEEPVPNSIGKSPDSVLVTASVKEAAEAFLGFDYAPPTDSFL
notes: made in house; host or cells: Sf21 insect cells
- Km ([1]; other: SGK1, Standard Substrate = …): 4 µM

B2: PRAK (Homo sapiens) (protein)
chain: MSEESDMDKAIKETSILEEYSINWTQKLGAGISGPVRVCVKKSTQERFALKILLDRPKARNEVRLHMMCATHPNIVQIIEVFANSVQFPHESSPRARLLIVMEMMEGGELFHRISQHRHFTEKQASQVTKQIALALRHCHLLNIAHRDLKPENLLFKDNSLDAPVKLCDFGFAKIDQGDLMTPQFTPYYVAPQVLEAQRRHQKEKSGIIPTSPTPYTYNKSCDLWSLGVIIYVMLCGYPPFYSKHHSRTIPKDMRRKIMTGSFEFPEEEWSQISEMAKDVVRKLLKVKPEERLTIEGVLDHPWLNSTEALDNVLPSAQLMMDKAVVAGIQQAHAEQLANMRIQDLKVSLKPLHSVNNPILRKRKLLGTKPKDSVYIHDHENGAEDSNVALEKLRDVIAQCILPQAGKGENEDEKLNEVMQEAWKYNRECKLLRDTLQSFSWNGRGFTDKVDRLKLAEIVKQVIEEQTTSHESQ
notes: as for B1
- Km [2]: 40 µM

B3: PKG (Bos taurus) (protein)
chain: MSELEEDFAKILMLKEERIKELEKRLSEKEEEIQELKRKLHKCQSVLPVPSTHIGPRTTRAQGISAEPQTYRSFHDLRQAFRKFTKSERSKDLIKEAILDNDFMKNLELSQIQEIVDCMYPVEYGKDSCIIKEGDVGSLVYVMEDGKVEVTKEGVKLCTMGPGKVFGELAILYNCTRTATVKTLVNVKLWAIDRQCFQTIMMRTGLIKHTEYMEFLKSVPTFQSLPEEILSKLADVLEETHYENGEYIIRQGARGDTFFIISKGKVNVTREDSPNEDPVFLRTLGKGDWFGEKALQGEDVRTANVIAAEAVTCLVIDRDSFKHLIGGLDDVSNKAYEDAEAKAKYEAEAAFFANLKLSDFNIIDTLGVGGFGRVELVQLKSEESKTFAMKILKKRHIVDTRQQEHIRSEKQIMQGAHSDFIVRLYRTFKDSKYLYMLMEACLGGELWTILRDRGSFEDSTTRFYTACVVEAFAYLHSKGIIYRDLKPENLILDHRGYAKLVDFGFAKKIGFGKKTWTFCGTPEYVAPEIILNKGHDISADYWSLGILMYELLTGSPPFSGPDPMKTYNIILRGIDMIEFPKKIAKNAANLIKKLCRDNPSERLGNLKNGVKDIQKHKWFEGFNWEGLRKGTLTPPIIPSVASPTDTSNFDSFPEDNDEPPPDDNSGWDIDF
notes: which were isolated from rat liver, bovine lung and bovine heart, respectively; from tissue; host or cells: bovine lung
- Km [3]: 50 µM

B4: S6K1 (Homo sapiens; T412E) (protein)
chain: MRRRRRRDGFYPAPDFRDREAEDMAGVFDIDLDQPEDAGSEDELEEGGQLNESMDHGGVGPYELGMEHCEKFEISETSVNRGPEKIRPECFELLRVLGKGGYGKVFQVRKVTGANTGKIFAMKVLKKAMIVRNAKDTAHTKAERNILEEVKHPFIVDLIYAFQTGGKLYLILEYLSGGELFMQLEREGIFMEDTACFYLAEISMALGHLHQKGIIYRDLKPENIMLNHQGHVKLTDFGLCKESIHDGTVTHTFCGTIEYMAPEILMRSGHNRAVDWWSLGALMYDMLTGAPPFTGENRKKTIDKILKCKLNLPPYLTQEARDLLKKLLKRNAASRLGAGPGDAGEVQAHPFFRHINWEELLARKVEPPFKPLLQSEEDVSQFDSKFTRQTPVDSPDDSTLSESANQVFLGFEYVAPSVLES
notes: as for B1
- Km ([1]; other: S6K1, Standard Substrate = LRRASLG): 6 µM
